Measurements taken from the supplement of paper PMC12042874.
± gives the uncertainty stated by the source.

Experiment: amyloid nucleation score (Sup35N fusion, yeast selection) (log enrichment); library NNK1; higher = more nucleation; inactive = no reads after selection
Procedure, shortened: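 The nucleation score is a DiMSum log enrichment of output over input reads, centred on the mode score of non-aggregating sequences. Sequences under 100 input reads were excluded, and reads came from Illumina sequencing of plasmid inserts. Psi-negative yeast expressing Sup35N fused to peptides of 20 random codons were induced with 100 μM copper sulfate for 24 hours and grown 7 days at 30°C on medium lacking adenine and uracil. Random libraries had three technical output replicates.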

| Substance | amyloid nucleation score |
| --- | --- |
| FCEWYLTDDFFYSLCFFFNE | 0.031 ± 0.55 |
| FCILFSLIVTVGSLLRFLYR | 2.01 ± 0.1 |
| FCLVMEFM | 0.606 ± 0.4 |
| FCPPYLSHNNYYWLLVRVFV | 0.322 ± 0.37 |
| FCSKTFL | 1.35 ± 0.46 |
| FCWVGQNEWCRHLFELCLER | 0.517 ± 0.63 |
| FDDFHESARTGFNGKERSQM | 1.01 ± 0.19 |
| FDGCNTKGNMSFAWSRPLGM | 0.246 ± 0.97 |
| FDNVVGYNGFMDGPGYLLYT | -0.16 ± 0.25 |
| FDPCYTHALWLFGDVKARCM | -0.083 ± 0.37 |
| FDRRLCFVG | 0.024 ± 0.52 |
| FDRWFRQGNGLVV | 0.225 ± 0.78 |
| FDSVHLRRSR | 0.701 ± 0.43 |
| FEDIRYDRKVWGICALSNCA | 0.814 ± 0.47 |
| FEKRALVSDSFYCNGVSRV | 0.082 ± 0.24 |
| FELQEYCFD | 0.923 ± 0.5 |
| FETDNIDPHGYSFEYDASPA | -0.25 ± 0.43 |
| FFCMKGKILIINALLEIDVG | 0.079 ± 0.34 |
| FFENWVYYHKCSHCYTAQYT | -0.559 ± 0.35 |
| FFESEVSDKNFGSC | -1.29 ± 2.4 |
| FFFIN | -0.391 ± 0.47 |
| FFFIQTSPLHAQYAISLVLR | -0.057 ± 0.52 |
| FFFYKPMNVEAIRDLHWPYS | 6.229 ± 0.06 |
| FFGVTYREYTWS | inactive |
| FFIRIVCLWG | 0.659 ± 0.42 |

| Substance | amyloid nucleation score |
| --- | --- |
| FFLNQMIILSLACIGEPGQG | 5.08 ± 0.068 |
| FFNRNLMCVVLIVRT | -0.388 ± 0.47 |
| FFNYD | -0.628 ± 0.8 |
| FFQRVCK | 1.65 ± 0.31 |
| FFRGFSWRVCSSFSSLVELW | inactive |
| FFRTSLCYDLVNSDEVDIIV | 0.411 ± 0.51 |
| FFTHCMWD | -1.05 ± 1.1 |
| FFTKAGRPFGLTRDISVL | -0.23 ± 0.87 |
| FFWSYAYIVIRLVSTKCWY | 0.011 ± 0.28 |
| FFYMDKLLCAQSPVRIFR | 0.837 ± 0.84 |
| FGFLLHGDDDQEGIVTGRGG | 0.384 ± 0.76 |
| FGIRVVSR | 0.842 ± 0.73 |
| FGLVREVFKM | 0.171 ± 0.59 |
| FGMVGTCYRMDRWDVIAVSV | 0.44 ± 0.41 |
| FGNSCSADSNRYQIKYTMIK | 0.155 ± 0.45 |
| FGSFVFPCYAQPELIPFNLY | 0.119 ± 0.72 |
| FGSMFVRLFFGSLNKYGMVK | -0.712 ± 0.92 |
| FGSQVFTDGHMCMQSGGTWC | 0.223 ± 0.34 |
| FGTGFSLCKFFCLAMRPSDV | 5.25 ± 0.08 |
| FGTLCSGDRYVRR | -0.611 ± 0.28 |
| FGVRQVYINGNFLRCLGTKS | 0.751 ± 0.93 |
| FGVTIPQVWVEC | -0.961 ± 1.7 |
| FGWLKPR | 0.994 ± 0.49 |
| FHDLTQSCVCGSM | 0.717 ± 0.49 |
| FHFVGLSVTVVLLSFWGWNT | 0.78 ± 0.52 |

| Substance | amyloid nucleation score |
| --- | --- |
| FHGLSGMRYWTRFCMWSPAC | 1.36 ± 0.66 |
| FHICDNRLDCSLIVVANSWK | 2.65 ± 0.18 |
| FHKVLSMFMMIVLVVKTWTT | inactive |
| FHLPALTSSLPA | 0.102 ± 0.35 |
| FHLRSCIRFSYLMTDWQAFQ | 0.69 ± 1 |
| FHYYMSFSGDGI | 0.724 ± 0.39 |
| FICFYVVSYTIMSLLFDTLG | 0.713 ± 0.92 |
| FICGDLNCQQTSSFCFLDYS | 7.296 ± 0.051 |
| FIGVLIRSVCQSGARIV | 0.514 ± 0.17 |
| FINAYRMFWIGYCNLFSLFL | 1.38 ± 0.52 |
| FIQGLCMVFDVSYLRLS | 2.8 ± 0.15 |
| FIRSRMVWLCLMLISTIERG | 0.835 ± 0.39 |
| FIRVGLVCVLKFRSVGEAWL | -0.045 ± 0.9 |
| FITRRSLGCRFPKPKSLRIN | -0.012 ± 0.4 |
| FIVGTFLHENASLRFRIHKA | -0.011 ± 0.35 |
| FIWECGNIISVCMRIGYMKA | 1.23 ± 0.41 |
| FKASIYDISQNT | -0.459 ± 0.3 |
| FKGHRHY | 0.318 ± 0.55 |
| FKIVKSCSMFST | 0.761 ± 0.24 |
| FKLIHAVNFVYLGYAFYAFF | 1.29 ± 0.38 |
| FKNCFDSNTAGICLNHLWKR | 1.25 ± 0.63 |
| FKNLCRAVS | 0.059 ± 0.53 |
| FKNVHFRNS | -1.69 ± 1.3 |
| FKSGRDSGMRG | -1.57 ± 1.1 |
| FKVTVRVGSTMSILL | 0.223 ± 0.42 |

| Substance | amyloid nucleation score |
| --- | --- |
| FKYRVGDTSCMVCNVWYGGD | 7.552 ± 0.057 |
| FLALR | -0.249 ± 0.61 |
| FLAWRTLDEMVLCKRCDNAI | 0.291 ± 1 |
| FLEWAPSLNKLHRF | 0.768 ± 0.17 |
| FLFRRYCAEEGLVWMKIVDT | 0.864 ± 0.53 |
| FLGMAHLCHEEGVRKLGGES | 0.679 ± 0.64 |
| FLGWICICPGQYRSAGPTAL | -0.487 ± 0.43 |
| FLHHFQCKNTSN | inactive |
| FLKNEHSYTGWCFSTWPVRY | 1.95 ± 0.29 |
| FLLGRNFNLANSNFHSVICL | 0.24 ± 0.88 |
| FLLWKGTIDIMRWHVFASN | -0.847 ± 0.79 |
| FLMPCFMKVGFVREEPWWRR | 0.096 ± 0.78 |
| FLNCVSLVNLLRLFRVCLMP | -0.765 ± 1.5 |
| FLNLAFAVSRLGLCMWYVAF | 0.319 ± 0.87 |
| FLPQAAWCKLYLIKLLNPPL | 1.1 ± 0.98 |
| FLRKHHSIMMVFMRIQGLRM | -1.72 ± 1.7 |
| FLSEE | -0.584 ± 0.44 |
| FLSICVDSVKFVFGGVWTSQ | -0.882 ± 0.53 |
| FLSIYDTIVDCWVALVLVRG | -0.723 ± 0.91 |
| FLSRFLMVRTRSAASVSAYE | -0.204 ± 0.39 |
| FLSVFRL | -0.884 ± 1.1 |
| FLSVLNFVRIIEKEVGRNRN | 1.79 ± 0.15 |
| FLTTEYDDWVSSAFINCCGD | -0.475 ± 0.41 |
| FLVMREFMIGCVRAG | 0.186 ± 0.97 |
| FLVVETI | inactive |

| Substance | amyloid nucleation score |
| --- | --- |
| FMDDSSLFPSI | 0.569 ± 0.58 |
| FMFLESRPSNCSTTPCKY | -0.29 ± 0.6 |
| FMPFASKCGCPN | 0.595 ± 0.41 |
| FMPTKGGQSIIGLHPLLFML | -0.577 ± 0.58 |
| FMSAV | 0.374 ± 1.2 |
| FMYWSIHDTIVLTWHDGSSL | -0.036 ± 0.65 |
| FNDHWSCRV | -0.095 ± 0.48 |
| FNGRVDSARCPGVARARHLL | -0.846 ± 2.4 |
| FNMIVSYAFVAFIVNIKVEI | 1.99 ± 0.12 |
| FNQINQGCRGCKQRTLVPDI | 0.5 ± 0.67 |
| FNSTTTESLHAVAEGTMNPL | 0.671 ± 0.54 |
| FNVRC | 0.496 ± 0.36 |
| FNWLTTEFRW | -0.037 ± 0.36 |
| FNWSRNHGF | 0.013 ± 0.76 |
| FNYHACSNFSFSPDQPSFHC | 0.553 ± 0.45 |
| FPDNVISIIDFR | -0.235 ± 0.54 |
| FPEHVPVSVYVCYRGYGRRV | -0.589 ± 0.61 |
| FPGLTFILAGMLCMTCKIRG | 4.12 ± 0.13 |
| FPMRSWCLEACRHCRQPTFS | -0.301 ± 1.4 |
| FPWTNLSDD | 0.04 ± 0.36 |
| FPWVCIVVCERTS | 3.41 ± 0.17 |
| FQAGREKSCCAYEVGDGCLV | -1.16 ± 2.4 |
| FQCVFH | 3.88 ± 0.062 |
| FQFESHW | 1.85 ± 0.24 |
| FQPIGSMWNYRSMYVYSTLF | -0.062 ± 0.57 |

| Substance | amyloid nucleation score |
| --- | --- |
| FQVCLVLSAHVRPQRYFKSW | -0.429 ± 0.8 |
| FQVVFGYSFMNMATISCVYE | 5.03 ± 0.054 |
| FRDMYCARNIACSFLLVVAC | 1.1 ± 0.19 |
| FREVMTGSNYRPTC | 0.158 ± 0.64 |
| FRFELYRLPVSDSLMKDLQL | 0.998 ± 0.58 |
| FRFLKEASKCKPVTVMSPSW | 0.123 ± 0.7 |
| FRFRLGNFGLRFRGYPERII | 0.405 ± 0.3 |
| FRGEVYELEIKGKILSSVFV | 0.121 ± 0.24 |
| FRGMGAS | 0.617 ± 0.62 |
| FRKLKTAYDFFHCRCPHSNA | 0.373 ± 0.78 |
| FRQFCCV | inactive |
| FRTATWNKIGAQDRVKSISV | -1.06 ± 2.7 |
| FRTHD | 0.351 ± 0.97 |
| FRWNLQAWQEVSGAGQRAVV | -0.014 ± 0.76 |
| FSCMRWM | 0.73 ± 0.43 |
| FSCVIGFPKHRNDTLVTERA | 6.65 ± 0.067 |
| FSDMDVTQPENKDWHLEE | 1.23 ± 0.9 |
| FSHDRGYLIFQVIRGHHCFM | 0.277 ± 0.57 |
| FSHKRW | -0.479 ± 0.48 |
| FSIAASASTLFDGFVIWRF | 0.027 ± 0.5 |
| FSIRTFVIRFTLMEHLSLEL | 0.266 ± 0.52 |
| FSKFSAVVDDPVCWKRLIFL | -0.57 ± 0.53 |
| FSKLWSVWLRLCLKG | 0.334 ± 0.52 |
| FSLDSRITANLTKWEEMLVQ | -0.779 ± 0.41 |
| FSLVATGSYITLDSVLMDVL | 0.728 ± 0.44 |

| Substance | amyloid nucleation score |
| --- | --- |
| FSLYAPSTPYSSMVRIRLSD | inactive |
| FSMTCYVWLITLAKMTRTFQ | 0.159 ± 0.73 |
| FSMWRSWNNNYSLISHSTGH | 0.367 ± 1.2 |
| FSNTCWNLKYHSNGAANFFV | 0.136 ± 0.96 |
| FSRDLLARGVDTPSVEFRSS | -0.362 ± 0.72 |
| FSRKINVYG | -0.396 ± 0.66 |
| FSSFESCCRRYSSM | 0.576 ± 0.93 |
| FSTFVGHYLSKMKWITVVNS | 0.531 ± 0.36 |
| FSTIGCKSMAVNCSFWYWSR | 6.196 ± 0.047 |
| FSVGYDNGMDNM | 0.426 ± 0.29 |
| FSVRNSSVILEHGVWLNCQG | 0.03 ± 0.97 |
| FTCSTYNCWGVHS | 1.26 ± 0.37 |
| FTDSTRFGSYLLSSAMFPTM | -1.65 ± 2.7 |
| FTIVLELFRNFSRSKVYEDV | -0.756 ± 2.4 |
| FTLHVSFRGSDDIKSVFYCS | 3.29 ± 0.11 |
| FTLLTAPGMATHLRTGMRSR | 0.51 ± 0.56 |
| FTLSPLGCVYYDT | 0.712 ± 0.72 |
| FTMSTISCSGSDTIVID | -0.503 ± 0.25 |
| FTNNVLNINVRG | 0.253 ± 1.2 |
| FTSPLKNHHLFGFAS | -0.345 ± 0.6 |
| FVDSFVNIWLIKTFSRIVVD | 0.161 ± 0.3 |
| FVFGTFA | 0.485 ± 0.59 |
| FVKSKGWVCAGFLYIASL | 0.53 ± 0.75 |
| FVLADYVGAARVRGTTLFAE | 0.406 ± 0.53 |
